# Test results as given in PMC9482650, “Quantitative fragmentomics allow affinity mapping of interactomes” (Nature Communications, 2022).
# T1: DLG3_2, Q92796
# T1 sequence (Q92796 221-321, limits assumed, looked up): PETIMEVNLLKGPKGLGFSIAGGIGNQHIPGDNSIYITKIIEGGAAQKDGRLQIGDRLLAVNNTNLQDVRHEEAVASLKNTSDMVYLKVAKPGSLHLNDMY
# T2: NHERF3_1, Q5T2W1
# T2 sequence (Q5T2W1 4-100, limits assumed, looked up): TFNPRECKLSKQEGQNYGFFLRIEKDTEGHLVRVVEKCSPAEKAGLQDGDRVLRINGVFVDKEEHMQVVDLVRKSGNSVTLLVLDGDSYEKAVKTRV
# T3: RAPGEF6, Q8TEU7
# T3 sequence (Q8TEU7 525-625, limits assumed, looked up): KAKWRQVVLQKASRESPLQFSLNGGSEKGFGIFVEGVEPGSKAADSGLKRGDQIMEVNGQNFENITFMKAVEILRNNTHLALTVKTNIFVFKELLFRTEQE
# T4: SNTG2, Q9NY99
# T4 sequence (Q9NY99 68-166, limits assumed, looked up): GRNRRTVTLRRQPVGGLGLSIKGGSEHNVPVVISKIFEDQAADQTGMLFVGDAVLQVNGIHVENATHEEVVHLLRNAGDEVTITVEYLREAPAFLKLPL
# T5: DFNB31_1, Q9P202
# T5 sequence (Q9P202 135-233, limits assumed, looked up): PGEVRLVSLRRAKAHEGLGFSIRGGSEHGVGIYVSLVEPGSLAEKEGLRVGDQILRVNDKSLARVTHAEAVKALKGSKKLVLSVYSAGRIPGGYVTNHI
# T6: MPDZ_10, O75970
# T6 sequence (O75970 1624-1722, limits assumed, looked up): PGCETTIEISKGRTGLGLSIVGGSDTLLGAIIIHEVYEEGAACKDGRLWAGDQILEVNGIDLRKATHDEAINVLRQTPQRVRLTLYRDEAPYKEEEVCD
# T7: TIAM2, Q8IVF5
# T7 sequence (Q8IVF5 885-986, limits assumed, looked up): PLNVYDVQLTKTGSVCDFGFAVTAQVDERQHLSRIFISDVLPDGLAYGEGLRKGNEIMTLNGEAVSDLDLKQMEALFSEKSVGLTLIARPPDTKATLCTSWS
# T8: LIN7B, Q9HAP6
# T8 sequence (Q9HAP6 88-185, limits assumed, looked up): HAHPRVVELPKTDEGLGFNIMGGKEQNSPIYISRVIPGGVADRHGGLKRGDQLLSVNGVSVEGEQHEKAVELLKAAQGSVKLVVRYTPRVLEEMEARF
# T9: HTRA4, P83105
# T9 sequence (P83105 378-476, limits assumed, looked up): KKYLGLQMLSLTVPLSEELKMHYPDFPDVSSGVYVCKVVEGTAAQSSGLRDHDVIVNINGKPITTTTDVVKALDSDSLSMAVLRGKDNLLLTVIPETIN
# T10: SNTA1, Q13424
# T10 sequence (Q13424 82-180, limits assumed, looked up): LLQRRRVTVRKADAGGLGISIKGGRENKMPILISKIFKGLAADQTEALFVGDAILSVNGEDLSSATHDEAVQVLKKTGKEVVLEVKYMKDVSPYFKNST
# T11: SNTG1, Q9NSN8
# T11 sequence (Q9NSN8 52-150, limits assumed, looked up): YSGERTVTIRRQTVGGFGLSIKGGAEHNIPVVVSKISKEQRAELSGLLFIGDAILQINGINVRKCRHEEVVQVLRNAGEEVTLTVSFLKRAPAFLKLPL
# What was measured:
# Assay in all cases: holdup assay
# Parameters in all cases: key: below the threshold = too weak to quantify, mostly under pKd 3.1 to 4
# Details in all cases: plain residues with an end cap or a label only (N-terminal biotin on a linker: ado-ado)
# IL16_1, Q14005 = target: IL16_1, Q14005
# Chain of IL16_1, Q14005 (Q14005 210-306): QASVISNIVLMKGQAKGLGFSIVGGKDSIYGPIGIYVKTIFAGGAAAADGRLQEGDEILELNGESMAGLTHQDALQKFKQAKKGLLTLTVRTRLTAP
# GRIP2_5, Q9C0E4 = target: GRIP2_5, Q9C0E4
# Chain of GRIP2_5, Q9C0E4 (Q9C0E4 544-642): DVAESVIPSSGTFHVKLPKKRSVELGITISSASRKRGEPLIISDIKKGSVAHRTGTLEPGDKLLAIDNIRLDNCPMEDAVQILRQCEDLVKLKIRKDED
# FRMPD2_2, Q68DX3 = target: FRMPD2_2, Q68DX3
# Chain of FRMPD2_2, Q68DX3 (Q68DX3 944-1038): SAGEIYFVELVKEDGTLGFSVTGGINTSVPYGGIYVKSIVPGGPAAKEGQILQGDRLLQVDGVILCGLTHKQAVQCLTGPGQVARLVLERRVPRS
# CASK, O14936 = target: CASK, O14936
# Chain of CASK, O14936 (O14936 487-570): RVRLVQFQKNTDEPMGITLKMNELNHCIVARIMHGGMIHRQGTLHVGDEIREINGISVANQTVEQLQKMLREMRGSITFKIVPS
# DLG3_2, Q92796 = target: T1, DLG3_2, Q92796
# NOS1, P29475 = target: NOS1, P29475
# Chain of NOS1, P29475 (P29475 9-101): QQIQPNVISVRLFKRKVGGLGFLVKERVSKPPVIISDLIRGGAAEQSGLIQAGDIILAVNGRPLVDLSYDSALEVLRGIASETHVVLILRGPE
# NHERF3_1, Q5T2W1 = target: T2, NHERF3_1, Q5T2W1
# PDLIM1, O00151 = target: PDLIM1, O00151
# Chain of PDLIM1, O00151 (O00151 1-87): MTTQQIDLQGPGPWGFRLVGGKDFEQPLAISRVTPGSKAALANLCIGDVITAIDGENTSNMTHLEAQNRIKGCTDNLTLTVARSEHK
# PARD3_3, Q8TEW0 = target: PARD3_3, Q8TEW0
# Chain of PARD3_3, Q8TEW0 (Q8TEW0 582-685): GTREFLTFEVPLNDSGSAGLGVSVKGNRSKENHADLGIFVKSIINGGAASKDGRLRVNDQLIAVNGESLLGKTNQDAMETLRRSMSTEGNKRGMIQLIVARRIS
# GORASP2, Q9H8Y8 = target: GORASP2, Q9H8Y8
# RAPGEF6, Q8TEU7 = target: T3, RAPGEF6, Q8TEU7
# DLG4_3, P78352 = target: DLG4_3, P78352
# Chain of DLG4_3, P78352 (P78352 306-403): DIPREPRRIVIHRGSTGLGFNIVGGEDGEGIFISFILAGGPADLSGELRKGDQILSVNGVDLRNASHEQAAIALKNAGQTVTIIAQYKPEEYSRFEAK
# IL16_4, Q14005 = target: IL16_4, Q14005
# Chain of IL16_4, Q14005 (Q14005 1229-1329): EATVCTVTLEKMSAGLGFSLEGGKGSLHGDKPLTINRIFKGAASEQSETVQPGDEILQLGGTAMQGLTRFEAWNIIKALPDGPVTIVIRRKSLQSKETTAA
# SCRIB_1, Q14160 = target: SCRIB_1, Q14160
# Chain of SCRIB_1, Q14160 (Q14160 718-814): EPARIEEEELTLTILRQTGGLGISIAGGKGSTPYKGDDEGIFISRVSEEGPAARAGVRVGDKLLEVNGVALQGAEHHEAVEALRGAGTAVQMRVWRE
# SNTG2, Q9NY99 = target: T4, SNTG2, Q9NY99
# DFNB31_1, Q9P202 = target: T5, DFNB31_1, Q9P202
# MPDZ_10, O75970 = target: T6, MPDZ_10, O75970
# TIAM2, Q8IVF5 = target: T7, TIAM2, Q8IVF5
# LIN7B, Q9HAP6 = target: T8, LIN7B, Q9HAP6
# HTRA4, P83105 = target: T9, HTRA4, P83105
# SNTA1, Q13424 = target: T10, SNTA1, Q13424
# GOPC, Q9HD26 = target: GOPC, Q9HD26
# Inadl_8, Q8NI35 = target: Inadl_8, Q8NI35
# Chain of Inadl_8, Q8NI35 (Q8NI35 1425-1530): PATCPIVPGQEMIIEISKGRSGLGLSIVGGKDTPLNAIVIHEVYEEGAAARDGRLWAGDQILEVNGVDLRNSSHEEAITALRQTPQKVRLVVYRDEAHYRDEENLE
# SNTG1, Q9NSN8 = target: T11, SNTG1, Q9NSN8
# DLG5_1, Q8TDM6 = target: DLG5_1, Q8TDM6
# Chain of DLG5_1, Q8TDM6 (Q8TDM6 617-713): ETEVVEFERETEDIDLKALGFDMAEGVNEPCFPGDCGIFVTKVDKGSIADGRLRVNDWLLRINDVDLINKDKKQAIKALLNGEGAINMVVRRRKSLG
# LIMK2, P53671 = target: LIMK2, P53671
# Chain of LIMK2, P53671 (P53671 143-248): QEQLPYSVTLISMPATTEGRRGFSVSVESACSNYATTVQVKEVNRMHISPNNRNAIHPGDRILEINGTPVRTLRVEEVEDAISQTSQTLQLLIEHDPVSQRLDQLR
Binder,"pKd (IL16_1, Q14005)","pKd (GRIP2_5, Q9C0E4)","pKd (FRMPD2_2, Q68DX3)","pKd (CASK, O14936)","pKd (DLG3_2, Q92796)","pKd (NOS1, P29475)","pKd (NHERF3_1, Q5T2W1)","pKd (PDLIM1, O00151)","pKd (PARD3_3, Q8TEW0)","pKd (GORASP2, Q9H8Y8)","pKd (RAPGEF6, Q8TEU7)","pKd (DLG4_3, P78352)","pKd (IL16_4, Q14005)","pKd (SCRIB_1, Q14160)","pKd (SNTG2, Q9NY99)","pKd (DFNB31_1, Q9P202)","pKd (MPDZ_10, O75970)","pKd (TIAM2, Q8IVF5)","pKd (LIN7B, Q9HAP6)","pKd (HTRA4, P83105)",further results
"PEYLGLDVPV [ERBB2, P04626]",3.65,below the threshold,below the threshold,below the threshold,3.53,3.9,below the threshold,below the threshold,3.52,below the threshold,below the threshold,below the threshold,3.72,below the threshold,below the threshold,below the threshold,below the threshold,below the threshold,below the threshold,3.98,"pKd (SNTA1, Q13424): 3.61; pKd (GOPC, Q9HD26): below the threshold; pKd (Inadl_8, Q8NI35): below the threshold; pKd (SNTG1, Q9NSN8): 3.55; pKd (DLG5_1, Q8TDM6): below the threshold; pKd (LIMK2, P53671): below the threshold"
"HSGYRLNDYV [CLDN14, O95500]",below the threshold,below the threshold,below the threshold,below the threshold,below the threshold,4.21,4.59,below the threshold,3.83,3.85,below the threshold,below the threshold,below the threshold,below the threshold,below the threshold,below the threshold,below the threshold,below the threshold,below the threshold,3.95,"pKd (SNTA1, Q13424): below the threshold; pKd (GOPC, Q9HD26): below the threshold; pKd (Inadl_8, Q8NI35): 3.87; pKd (SNTG1, Q9NSN8): below the threshold; pKd (DLG5_1, Q8TDM6): below the threshold; pKd (LIMK2, P53671): below the threshold"
"KKMPSIESDV [GRIN2A, Q12879]",4.05,below the threshold,3.78,below the threshold,5.25,below the threshold,below the threshold,3.93,below the threshold,below the threshold,below the threshold,below the threshold,below the threshold,4.34,4.41,below the threshold,below the threshold,3.96,3.71,below the threshold,"pKd (SNTA1, Q13424): 4.59; pKd (GOPC, Q9HD26): below the threshold; pKd (Inadl_8, Q8NI35): 3.76; pKd (SNTG1, Q9NSN8): 4.89; pKd (DLG5_1, Q8TDM6): below the threshold; pKd (LIMK2, P53671): below the threshold"

# The next lines start with results.
"pKd (IL16_1, Q14005)","pKd (GRIP2_5, Q9C0E4)","pKd (FRMPD2_2, Q68DX3)","pKd (CASK, O14936)","pKd (DLG3_2, Q92796)","pKd (NOS1, P29475)","pKd (NHERF3_1, Q5T2W1)","pKd (PDLIM1, O00151)","pKd (PARD3_3, Q8TEW0)","pKd (GORASP2, Q9H8Y8)","pKd (RAPGEF6, Q8TEU7)","pKd (DLG4_3, P78352)","pKd (IL16_4, Q14005)","pKd (SCRIB_1, Q14160)","pKd (SNTG2, Q9NY99)","pKd (DFNB31_1, Q9P202)","pKd (MPDZ_10, O75970)","pKd (TIAM2, Q8IVF5)","pKd (LIN7B, Q9HAP6)","pKd (HTRA4, P83105)",Binder,further results
below the threshold,below the threshold,below the threshold,below the threshold,3.61,below the threshold,5.69,below the threshold,4.63,below the threshold,below the threshold,below the threshold,below the threshold,3.99,below the threshold,3.62,below the threshold,below the threshold,below the threshold,3.75,"TSQESEDTYL [TBC1D10A, Q9BXI6]","pKd (SNTA1, Q13424): 3.91; pKd (GOPC, Q9HD26): below the threshold; pKd (Inadl_8, Q8NI35): below the threshold; pKd (SNTG1, Q9NSN8): below the threshold; pKd (DLG5_1, Q8TDM6): below the threshold; pKd (LIMK2, P53671): below the threshold"
3.83,below the threshold,3.82,below the threshold,4.38,below the threshold,below the threshold,below the threshold,below the threshold,below the threshold,below the threshold,below the threshold,below the threshold,3.75,4.08,below the threshold,3.85,below the threshold,below the threshold,below the threshold,"DDENIRTSDV [PLEKHA2, Q9HB19]","pKd (SNTA1, Q13424): 5.11; pKd (GOPC, Q9HD26): 3.5; pKd (Inadl_8, Q8NI35): 4.94; pKd (SNTG1, Q9NSN8): 4.88; pKd (DLG5_1, Q8TDM6): below the threshold; pKd (LIMK2, P53671): below the threshold"
below the threshold,below the threshold,below the threshold,below the threshold,5.33,3.65,below the threshold,below the threshold,below the threshold,4.47,below the threshold,4.18,3.51,3.58,below the threshold,below the threshold,3.57,3.91,3.73,below the threshold,"AKPSRISTVV [IQSEC2, Q5JU85]","pKd (SNTA1, Q13424): 4.12; pKd (GOPC, Q9HD26): 4.35; pKd (Inadl_8, Q8NI35): 3.89; pKd (SNTG1, Q9NSN8): below the threshold; pKd (DLG5_1, Q8TDM6): below the threshold; pKd (LIMK2, P53671): below the threshold"
